PMC10318897, “The structure of Leptospira interrogans GAPDH sheds light into an immunoevasion factor that can target the anaphylatoxin C5a of innate immunity” (Frontiers in Immunology, 2023)

B1: Leptospira interrogans glyceraldehyde-3-phosphate dehydrogenase (GAPDH) (enzyme)
chain: MTRIAINGFGRIGRLVFRAGIKDPNLEFVAINDLVTPDNLAYLLKYDSTHGRFQGTVEHTEKELIVDGKKILCVSERDPEKLPWKDLKVDYVIESTGLFTDRVGAEKHIKAGAKKVVISAPAKDKDIPTFVMGVNNEKYNPSNDHIVSNASCTTNCLAPIVKVVLDNWGIEEGLMTTIHATTATQPTVDGPSKKDFRGGRGAMQNIIPASTGAAKAVGLCIPEVNGKLTGMSFRVPTPDVSVVDLTVRTTKETSLKEISAKMKAASEGAMKGILGYTEDMVVSNDFVSSTLSSIFDMDACIELNSRFFKLVSWYDNEMGYSNRVLDLIRYMAKKG
notes: also called LiGAPDH; L. interrogans GAPDH; source: E. coli Rosetta(DE3), purified (HisTrap, Superdex 200 SEC); not shown: His6, N-terminal, kept
B2: biotinylated-C5a (ligand)
chain: TLQKKIEEIAAKYKHSVVKKCCYDGACVNNDETCEQRAARISLGPRCIKAFTECCVVASQLRANISHKDMQLGR
modifications: biotinylated (site not stated)
notes: also called immobilized C5a; source: bought: Abvance Biotech (ABVC5ARBIO1)

Tests used:
[1] = target: the molecule itself; experiment: SEC; HiLoad 16/60 Superdex 200 pg in 10 mM HEPES-NaOH (pH 7.4), 150 mM NaCl, 3.4 mM EDTA; elution volume compared with a calibration curve
[2] = target: B1; experiment: BLI; settings: both partners purified

Binder | stoichiometry N [1] | kon [2]
B1 | 4 | 
B2 |  | 37.3 ± 0.2 M⁻¹ s⁻¹
